B1: RAS guanyl-releasing protein 1, residues 539 to 593; numbered along this chain, O95267 (parent)
chain: GFPHNFQETTYLKPTFCDNCAGFLWGVIKQGYRCKDCGMNCHKQCKDLVVFECKK

Variants of: B1
Experiment: abundance fitness (aPCA) (normalised: wild type 0, dead -1); higher = more abundant; growth selection in yeast, the domain comes from the species named
Conditions: Homo sapiens

Abundance fitness of substitutions, site by site:
F23: Y -0.074; Q -0.204; P -0.409; L 0.105; M -0.022; S -0.431; I -0.032; A -0.433; E -0.333; D -0.423; W 0.014; N -0.628; R -0.242; G -0.328; T -0.503; K -0.297; H -0.706; V -0.132; C -0.166
M39: G -0.097; A -0.111; T -0.142; C -0.455; Q -0.032; P -1.03; I -0.115; R -0.143; N -0.15; V -0.111; L -0.122; D -0.242; F -0.158; W -0.157; Y -0.1; K -0.079
W25: S -0.246; H -0.226; K -0.206; D -0.121; V -0.102; T 0.157; R -0.217; N -0.377; I -0.038; G -0.425; F -0.143; L -0.286; M -0.247; E -0.047; C -0.558; Q -0.128; A -0.148; Y -0.191; P -0.07
D36: A -0.146; M -0.09; T -0.02; C -0.245; P -0.2; N -0.006; F -0.108; K -0.139; S -0.028; V -0.289; R -0.055; L -0.051; W -0.041; E -0.021; Q -0.209; G 0.118; Y -0.296; I -0.028; H -0.148
G38: N 0.062; T -0.282; S -0.02; D -0.003; L -0.075; I -0.453; P -0.081; A 0.032; E 0.077; Y -0.514; Q -0.281; F -0.071; W -0.109; C -0.095; M -0.095
K29: P -0.556; R -0.103; M -0.052; E -0.386; I -0.252; W -0.256; F -0.224; T -0.289; S -0.086; D -0.618; C -0.171; A -0.124; Y -0.011; H -0.108; V -0.289; N 0.013
Y32: T 0.093; C -0.059; D -0.224; H -0.132; W -0.068; L -0.104; M -0.101; F -0.312; R -0.393; S -0.026; A -0.171; P -0.883; I -0.184; E -0.166; V -0.007; K -0.132; Q -0.536; G -0.186
C20: V -1.13; T -1.05; W -0.827
V27: H -0.516; C -0.192; R -0.647; Y -0.018; P -0.297; S -0.423; A -0.102; D -0.657; E -0.17; L -0.063; G -0.19; I -0.119; F 0.027; K -0.434; W -0.22
R33: W 0.004; M 0.069; D -0.26; P -0.919; Q -0.262; V -0.1; F -0.017; K 0.121; L -0.078; I 0.118; G -0.134; S -0.025; C 0.122; A -0.167; N 0.286; Y -0.402; E 0.129
K35: M -0.266; W -0.19; V -0.135; S -0.026; Y 0.024; N -0.297; C -0.13; E 0.039; G -0.118; D -0.096; A 0.041; F -0.193; H -0.029; Q 0.1; T -0.022; L 0.021; I -0.009; R -0.004; P -0.134
N40: E -0.082; R -0.142; P -0.144; T -0.042; D -0.023; L -0.349; M -0.087; A -0.081; G -0.08; C -0.137; Q -0.02; K -0.17; H -0.127; I -0.093
L24: D -0.709; C -0.118; W -0.617; E -0.369; G -0.48; R -0.375; P -0.612; N -0.303; I -0.049; M 0.248; H -0.465; Y -0.623; T -0.279; V -0.241; S -0.325; A -0.396; F -0.006; K -0.333; Q -0.424
I28: R -0.084; Y -0.199; K 0.065; W -0.111; Q -0.462; E -0.341; V -0.056; L -0.27; N -0.243; T -0.116; H -0.209; C -0.223; D -0.429; S -0.136
A21: C -0.009; K 0.019; I 0.04; V -0.071; R 0.053; T 0.043; F -0.074; Q -0.311; G -0.084; H -0.082; Y 0.13; P -0.116; E -0.041; M -0.162; W -0.222
G26: Q -0.462; L -0.452; W -0.269; E -0.517; R -0.616; T -0.529; K -0.442; C -0.563; A -0.225; N -0.562; D -0.449; F -0.703; H -0.375; V -0.736; I -0.946; M -0.345
G22: S -0.066; R -0.082; C 0.147; F -0.386; D -0.189; P -0.595; M 0.105; Y -0.317; V -0.482; K -0.278; I -0.154; Q -0.146; N -0.298; H -0.078; E -0.164
G31: W -0.901; D -0.597; S -0.482; Y -0.06; V -0.479; P -1.08; K -0.748; A -0.092; I -0.685; E -0.414; L -0.663; F -0.205; N -0.717; H -0.559; R -0.719; C -0.352; M -0.461
C34: V -0.723; Y -0.922; K -0.886; H -0.809; W -0.891; S -0.947; Q -0.924; T -0.776; L -0.915; I -0.724; A -0.81; F -0.729; G -0.951; D -0.269; R -0.954; M -0.649
C37: F -0.924; E -0.967; N -0.824; Q -0.87; D -0.864; V -0.959; M -0.904; R -0.879; G -1.14; P -1.07; W -0.607; Y -0.708; K -0.933; T -0.427; A -1.25; S -0.625; L -0.953
Q30: Y -0.693; I -0.872; S -0.54; F -0.756; P -0.669; R -0.519; H -0.663; K -0.599; E -0.589; A -0.597; W -0.586; N -0.495; L -0.765; G -0.52; V -0.617

— the Human Domainome abundance scans (Beltran et al. 2025)
